Measured values: PMC7408900, “Cancer-Associated Substitutions in RNA Recognition Motifs of PUF60 and U2AF65 Reveal Residues Required for Correct Folding and 3′ Splice-Site Selection”

Columns and labels:
PUF60 WT [1] = target: T1, PUF60 WT (human, UniProt Q9UHX1 1-559); assay: EMSA; strong binding; 0.14-1.25 uM protein, 15 nM RNA; EMSA: 40 mM Tris pH 8.0, 5 mM MgCl2, 0.25 ug/uL heparin, 0.01% Triton, 1 mM DTT, room temperature 20 min; 6% native PAGE in 0.5x TBE at 4 C; 15-17 nM biotin-RNA; conditions: protein: recombinant; tags: 2xHis-lipoyl-TEV, removed by TEV; label: 5' biotin; single strand
PUF60 WT [2] = target: T1, PUF60 WT; assay: EMSA; Kd only in figure; Hill 2.6; similar affinity to cr probe; EMSA: 40 mM Tris pH 8.0, 5 mM MgCl2, 0.25 ug/uL heparin, 0.01% Triton, 1 mM DTT, room temperature 20 min; 6% native PAGE in 0.5x TBE at 4 C; 15-17 nM biotin-RNA; conditions: protein: recombinant; tags: 2xHis-lipoyl-TEV, removed by TEV; label: 5' biotin; single strand
U2AF65 WT [3] = target: T2, U2AF65 WT (human, UniProt P26368 1-475); assay: EMSA; Kd shown only in figure; 0.13-4.2 uM protein; similar affinity to cr probe; EMSA: 40 mM Tris pH 8.0, 5 mM MgCl2, 0.25 ug/uL heparin, 0.01% Triton, 1 mM DTT, room temperature 20 min; 6% native PAGE in 0.5x TBE at 4 C; 15-17 nM biotin-RNA; conditions: protein: recombinant; tags: N-terminal GST (pGEX6P, eluted with glutathione); label: 5' biotin; single strand
PUF60 WT [4] = target: T1, PUF60 WT; assay: EMSA; Kd only in figure; Hill 3.0; similar affinity to can probe; EMSA: 40 mM Tris pH 8.0, 5 mM MgCl2, 0.25 ug/uL heparin, 0.01% Triton, 1 mM DTT, room temperature 20 min; 6% native PAGE in 0.5x TBE at 4 C; 15-17 nM biotin-RNA; conditions: protein: recombinant; tags: 2xHis-lipoyl-TEV, removed by TEV; label: 5' biotin; single strand
U2AF65 WT [5] = target: T2, U2AF65 WT; assay: EMSA; Kd shown only in figure; 0.13-4.2 uM protein; similar affinity to can probe; EMSA: 40 mM Tris pH 8.0, 5 mM MgCl2, 0.25 ug/uL heparin, 0.01% Triton, 1 mM DTT, room temperature 20 min; 6% native PAGE in 0.5x TBE at 4 C; 15-17 nM biotin-RNA; conditions: protein: recombinant; tags: N-terminal GST (pGEX6P, eluted with glutathione); label: 5' biotin; single strand

T1 sequence (Q9UHX1 whole entry): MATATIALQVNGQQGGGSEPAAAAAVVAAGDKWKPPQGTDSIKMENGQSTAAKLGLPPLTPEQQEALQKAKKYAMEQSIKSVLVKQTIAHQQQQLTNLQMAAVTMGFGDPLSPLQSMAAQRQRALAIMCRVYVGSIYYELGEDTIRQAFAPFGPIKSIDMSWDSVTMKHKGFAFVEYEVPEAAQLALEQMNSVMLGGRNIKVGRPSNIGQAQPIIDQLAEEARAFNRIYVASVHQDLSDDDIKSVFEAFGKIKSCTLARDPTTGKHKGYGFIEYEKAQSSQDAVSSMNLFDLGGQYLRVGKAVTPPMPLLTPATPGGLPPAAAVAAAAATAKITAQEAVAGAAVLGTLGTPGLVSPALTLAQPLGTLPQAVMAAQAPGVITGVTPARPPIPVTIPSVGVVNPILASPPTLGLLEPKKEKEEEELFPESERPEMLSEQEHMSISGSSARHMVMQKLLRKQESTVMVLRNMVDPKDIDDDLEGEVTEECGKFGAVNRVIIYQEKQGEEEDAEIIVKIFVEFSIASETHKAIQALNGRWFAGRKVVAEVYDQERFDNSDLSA
T2 sequence (P26368 whole entry, one chain of several): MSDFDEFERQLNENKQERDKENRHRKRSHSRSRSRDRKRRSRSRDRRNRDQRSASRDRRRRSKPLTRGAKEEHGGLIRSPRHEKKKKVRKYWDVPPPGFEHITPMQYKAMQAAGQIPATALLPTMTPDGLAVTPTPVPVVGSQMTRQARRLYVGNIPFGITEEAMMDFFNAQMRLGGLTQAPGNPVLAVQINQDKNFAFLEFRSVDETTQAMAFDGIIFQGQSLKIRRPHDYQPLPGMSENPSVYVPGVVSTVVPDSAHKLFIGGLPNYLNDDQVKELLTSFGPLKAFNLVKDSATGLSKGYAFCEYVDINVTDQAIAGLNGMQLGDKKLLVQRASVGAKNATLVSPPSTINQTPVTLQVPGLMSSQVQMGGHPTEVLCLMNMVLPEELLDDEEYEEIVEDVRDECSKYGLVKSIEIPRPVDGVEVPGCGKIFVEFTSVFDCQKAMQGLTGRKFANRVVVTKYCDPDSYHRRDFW

Binder: UUCGUGCUGACCUGUCCCUUUUUUUUCCACAGC (ssRNA) [AdML]
- binding result (PUF60 WT [1]): binds

Binder: UUUUUUUGUUUUGUUUUGUGUUUUUUGAUAGA (ssRNA) [UBE2F-can3'ss-32]
- binding result (PUF60 WT [2]): binds
- binding result (U2AF65 WT [3]): binds

Binder: CUUUUUGUUUCCUUUUUUUUUUAAUUUAAAGG (ssRNA) [UBE2F-cr3'ss-32]
- binding result (PUF60 WT [4]): binds
- binding result (U2AF65 WT [5]): binds
